# Data as given in patent publication US20230159624A1.
# What was measured:
# [1] = target: MT1-MMP (R&D, 918-MP-010) (UniProt P50281); assay: enzyme inhibition kinetics with fluorescent substrate Mca-K-P-L-G-L-Dpa-A-R-NH2, LS-55 spectrofluorimeter
# [2] = target: MT1-MMP (R&D, 918-MP-010) (UniProt P50281); assay: enzyme inhibition kinetics with fluorescent substrate, LS-55 spectrofluorimeter
substance,measurement,setting,value
Wild Type TIMP-1 (inhibitory domain) (from UniProt P01033 24-149),Ki^app,[1],178 nM
same,Ki^app,[2],> 150 nM
